B1: TTALKTTSR (peptide)
peptide: TTALKTTSR
B2: RMASPVNVK (peptide)
peptide: RMASPVNVK
B3: AVRKPIVLK (peptide)
peptide: AVRKPIVLK
B4: GMMKGGIRK (peptide)
peptide: GMMKGGIRK
B5: RMFADDLHNLNK (peptide)
peptide: RMFADDLHNLNK
B6: RSLRYYYEK (peptide)
peptide: RSLRYYYEK
B7: GTVNPTVGK (peptide)
peptide: GTVNPTVGK
B8: SMYYPLQLK (peptide)
peptide: SMYYPLQLK
B9: RAKELEATF (peptide)
peptide: RAKELEATF
B10: RVNAIPFTY (peptide)
peptide: RVNAIPFTY
B11: VSKTTGMEF (peptide)
peptide: VSKTTGMEF
B12: SVSSETTKIKR (peptide)
peptide: SVSSETTKIKR
B13: NLSSITHER (peptide)
peptide: NLSSITHER
B14: TVAPPQGVVK (peptide)
peptide: TVAPPQGVVK
B15: KSLIKSWKK (peptide)
peptide: KSLIKSWKK
B16: KVAGERYVYK (peptide)
peptide: KVAGERYVYK
B17: KVVDRWNEK (peptide)
peptide: KVVDRWNEK
B18: SVSGVKTTF (peptide)
peptide: SVSGVKTTF
B19: VLYGPAGLGK (peptide)
peptide: VLYGPAGLGK
B20: SLKERNPLK (peptide)
peptide: SLKERNPLK
B21: VVLLGSLFSRK (peptide)
peptide: VVLLGSLFSRK
B22: KTFPASTVF (peptide)
peptide: KTFPASTVF
B23: RISEYLLEK (peptide)
peptide: RISEYLLEK
B24: LLQPPPLLAR (peptide)
peptide: LLQPPPLLAR
B25: QSMYYPLQLK (peptide)
peptide: QSMYYPLQLK
B26: VVHAVFALK (peptide)
peptide: VVHAVFALK
B27: ATFERVLLR (peptide)
peptide: ATFERVLLR
B28: STTFPTLTK (peptide)
peptide: STTFPTLTK
B29: RRIHTGEKPYK (peptide)
peptide: RRIHTGEKPYK
B30: RVAELLLLH (peptide)
peptide: RVAELLLLH
B31: RQPERTILRPR (peptide)
peptide: RQPERTILRPR
B32: KILEEHTNK (peptide)
peptide: KILEEHTNK
B33: KTYETNLEIKK (peptide)
peptide: KTYETNLEIKK
B34: ALEVAHRLK (peptide)
peptide: ALEVAHRLK
B35: AVAPPTPASK (peptide)
peptide: AVAPPTPASK
B36: KLQPAQTAAK (peptide)
peptide: KLQPAQTAAK
B37: VLLGSLFSRK (peptide)
peptide: VLLGSLFSRK
B38: IVQEPTEEK (peptide)
peptide: IVQEPTEEK
B39: GTSPPSVEK (peptide)
peptide: GTSPPSVEK
B40: AERQPGAASL (peptide)
peptide: AERQPGAASL
B41: YEVARILNL (peptide)
peptide: YEVARILNL
B42: KESIPRWYY (peptide)
peptide: KESIPRWYY
B43: AEHEGVSVL (peptide)
peptide: AEHEGVSVL
B44: REGDTVQLL (peptide)
peptide: REGDTVQLL
B45: AEDKRHYSV (peptide)
peptide: AEDKRHYSV
B46: SEDGLPEGIHL (peptide)
peptide: SEDGLPEGIHL
B47: KEVDPTSHSY (peptide)
peptide: KEVDPTSHSY
B48: VEQTRAGSLL (peptide)
peptide: VEQTRAGSLL
B49: YEKGIMQKV (peptide)
peptide: YEKGIMQKV
B50: LEKALQVF (peptide)
peptide: LEKALQVF
B51: EDGRLVIEF (peptide)
peptide: EDGRLVIEF
B52: AEIEPKADG (peptide)
peptide: AEIEPKADG
B53: KEFLFNMY (peptide)
peptide: KEFLFNMY
B54: TEVSRTEAI (peptide)
peptide: TEVSRTEAI
B55: QEAARAAL (peptide)
peptide: QEAARAAL
B56: AEATARLNVF (peptide)
peptide: AEATARLNVF
B57: REAGDEFELRY (peptide)
peptide: REAGDEFELRY
B58: TEVSRTEL (peptide)
peptide: TEVSRTEL
B59: GEMEQKQL (peptide)
peptide: GEMEQKQL
B60: SEITRIEM (peptide)
peptide: SEITRIEM
B61: NEAIMHQY (peptide)
peptide: NEAIMHQY
B62: EEAQWVRKY (peptide)
peptide: EEAQWVRKY
B63: SFEQVVNELF (peptide)
peptide: SFEQVVNELF
B64: REAGDEFEL (peptide)
peptide: REAGDEFEL
B65: IEHSTQAQDTL (peptide)
peptide: IEHSTQAQDTL
B66: GEIEIHLL (peptide)
peptide: GEIEIHLL
B67: GEGPKTSW (peptide)
peptide: GEGPKTSW
B68: LEAQQEAL (peptide)
peptide: LEAQQEAL
B69: AEFLLRIFL (peptide)
peptide: AEFLLRIFL
B70: NEIWTHSY (peptide)
peptide: NEIWTHSY
B71: RELANDELIL (peptide)
peptide: RELANDELIL
B72: REGPEEPGL (peptide)
peptide: REGPEEPGL
B73: MEHPGKLLF (peptide)
peptide: MEHPGKLLF

target: T1, HLA-A*03:01 (human); experiment: UV-exchange b2m ELISA; exchange-yield grade
T1 construct: also called peptide-receptive MHC molecules
How it was run: (§1)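 Binding capacity is graded by how much β2m-containing, stabilised complex survives UV-induced loss of the placeholder peptide. An anti-β2m sandwich ELISA on streptavidin capture, calibrated with refolded monomers (15-500 ng/ml), measures this.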

Binder	peptide exchange yield
B1	10 to 20%
B2	> 75%
B3	50 to 75%
B4	50 to 75%
B5	50 to 75%
B6	20 to 50%
B7	20 to 50%
B8	50 to 75%
B9	10 to 20%
B10	50 to 75%
B11	10 to 20%
B12	20 to 50%
B13	20 to 50%
B14	20 to 50%
B15	20 to 50%
B16	50 to 75%
B17	20 to 50%
B18	20 to 50%
B19	50 to 75%
B20	20 to 50%

Binder	peptide exchange yield
B21	20 to 50%
B22	10 to 20%
B23	20 to 50%
B24	20 to 50%
B25	20 to 50%
B26	50 to 75%
B27	50 to 75%
B28	20 to 50%
B29	20 to 50%
B30	20 to 50%
B31	20 to 50%
B32	20 to 50%
B33	50 to 75%
B34	20 to 50%
B35	20 to 50%
B36	20 to 50%
B37	20 to 50%
B38	20 to 50%
B39	20 to 50%

target: T2, HLA-B*44:02 (human); experiment: UV-exchange b2m ELISA; exchange-yield grade
T2 construct: also called peptide-receptive MHC molecules
How it was run: as §1

Binder	peptide exchange yield	binding result
B40	20 to 50%	–
B41	20 to 50%	–
B42	20 to 50%	–
B43	20 to 50%	–
B44	20 to 50%	–
B45	20 to 50%	–
B46	20 to 50%	–
B47	20 to 50%	–
B48	20 to 50%	–
B49	20 to 50%	–
B50	20 to 50%	–
B51	10 to 20%	–
B52	20 to 50%	–
B53	20 to 50%	–
B54	20 to 50%	–
B55	20 to 50%	–
B56	–	binds

Binder	peptide exchange yield	binding result
B57	20 to 50%	–
B58	20 to 50%	–
B59	20 to 50%	–
B60	20 to 50%	–
B61	20 to 50%	–
B62	20 to 50%	–
B63	20 to 50%	–
B64	20 to 50%	–
B65	20 to 50%	–
B66	10 to 20%	–
B67	20 to 50%	–
B68	20 to 50%	–
B69	20 to 50%	–
B70	10 to 20%	–
B71	20 to 50%	–
B72	20 to 50%	–
B73	–	binds
